Paper PMC4823717

What was measured:
[1] = biological target: Ffh (the protein subunit of signal recognition particle, SRP), wild type (UniProt P0AGD7); test: in vivo photo-cross-linking ([35S]Met pulse-labeling, immunoprecipitation, SDS-PAGE, phosphorimaging); conditions: 30 °C, M9-based medium with 1 mM pBPA, 1 mM IPTG for 6 min, [35S]Met for 1 min, UV irradiation; parent: 100; read off a plot
[2] = biological target: T1, Ffh (the protein subunit of signal recognition particle, SRP), wild type, P0AGD7; test: as above; conditions: chain shown with the change; 30 °C, M9-based medium with 1 mM pBPA, 1 mM IPTG for 6 min, [35S]Met for 1 min, UV irradiation; parent: 100; read off a plot
T1 chain: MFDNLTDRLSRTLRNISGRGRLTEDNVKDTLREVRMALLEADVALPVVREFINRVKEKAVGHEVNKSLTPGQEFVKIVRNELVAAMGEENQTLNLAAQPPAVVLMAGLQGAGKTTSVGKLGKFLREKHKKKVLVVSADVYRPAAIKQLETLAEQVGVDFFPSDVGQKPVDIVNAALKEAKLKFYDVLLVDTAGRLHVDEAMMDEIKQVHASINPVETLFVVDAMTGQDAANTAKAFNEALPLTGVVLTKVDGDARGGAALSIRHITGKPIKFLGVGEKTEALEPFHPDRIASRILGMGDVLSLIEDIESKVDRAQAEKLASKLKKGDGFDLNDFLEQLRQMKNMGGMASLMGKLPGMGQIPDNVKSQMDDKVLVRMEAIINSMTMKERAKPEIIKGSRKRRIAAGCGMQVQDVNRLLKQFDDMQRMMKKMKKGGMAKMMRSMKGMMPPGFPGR

With “His6-σ32 K51pBPA (from UniProt P0AGB3) I54N” the percent of parent (parent (no dysregulation mutation) = 100) [1] was 53.

For “His6-σ32 K51pBPA (from UniProt P0AGB3) R91P”, the percent of parent (parent (no dysregulation mutation) = 100) [1] was 78.

“His6-σ32 T52pBPA (from UniProt P0AGB3) I54N” showed a percent of parent (parent (no dysregulation mutation) = 100) [1] of 43.

Molecule “His6-σ32 T52pBPA (from UniProt P0AGB3) R91P” has a percent of parent (parent (no dysregulation mutation) = 100) [1] of 76.

With MTDKMQSLALAPVGNLDSYIRAANAWPMLSADEERALAEKLHYHGDLEAD [His6-σ32 K51pBPA, P0AGB3 A50D] the percent of parent (parent (no dysregulation mutation) = 100) [2] was 7.6.

B1: His6-σ32 T52pBPA, P0AGB3 K51E (protein)
chain: MTDKMQSLALAPVGNLDSYIRAANAWPMLSADEERALAEKLHYHGDLEAAE
In the case of B1, the percent of parent (parent (no dysregulation mutation) = 100) [2] is reported as 95.

B2: His6-σ32 T52pBPA, P0AGB3 A50D (protein)
chain: MTDKMQSLALAPVGNLDSYIRAANAWPMLSADEERALAEKLHYHGDLEADK
With B2 the percent of parent (parent (no dysregulation mutation) = 100) [2] was 36.
